t1/2, Kd and koff data for four substances are collected here from publication PMC9837990.

The target in this experiment is CH31 IgG monoclonal antibody. As to the kind of experiment: SPR.

In turn, “GT8 tetramer (biotinylated eOD-GT8 on streptavidin) (from UniProt P22629 25-183) (complex)” yielded a t1/2 of 44.4 min.

In the case of eOD-GT6-Avi-3C-His (designed binder), the equilibrium dissociation constant (Kd) amounted to 5200 nM and the koff is over 0.01 s⁻¹.

For “GT6 tetramer (biotinylated eOD-GT6 on streptavidin) (from UniProt P22629 25-183) (complex)”, the t1/2 was determined as 4.9 min.

As for eOD-GT8_AviHis (designed binder), the dissociation constant (Kd) worked out at 308 nM and the koff was over 0.01 s⁻¹.
